In general, Kd refers to the constant that tells how readily two partners part at equilibrium.

For this experiment, the target named is biotinylated human IgG1 Fc protein (IG1-H8213, ACROBiosystems) (human). The experiment in a line: BLI.

On to “Fc-ARM A-Z (HER2-specific affibody Z_(HER2:342) fused to a single Z domain) (designed binder)”, for which the Kd is 7.8 nM.
For “Fc-ARM A-ZZ (HER2-specific affibody Z_(HER2:342) fused to double Z domains) (designed binder)” the value was 0.28 nM.

The values above are taken from PMC11262565.
